Blank lines part the entries; values can stand above or below the molecule they belong to.
Key:
hPDGFRB-ECD = hPDGFRB-ECD (Homo sapiens, UniProt P09619); experiment: Binding assay on hPDGFRB-ECD; settings: biparatopic constructs, FIG. 15A
Method: The 15 unique hIGF2R-binding VHH (Example 2.1, FIG. 2) were produced and purified as described in examples 3 and 4. The apparent affinities were determined through binding assay on immobilized hIGF2R-ECD. Briefly, three-fold serial dilution series, starting from 1 μM, of each VHH were plated onto hIGF2R-ECD coated plates. VHH were allowed to bind for two hours after which plates were washed. Then, bound VHH was detected using a VHH-specific IgG antibody, followed by an IRD800CW-conjugated IgG-specific antibody. Plates were read out by fluorimetry.
The 18 unique hPDGFRB binders from libraries 1 and 2, and the 11 unique rPDGFRB binders from libraries 3 and 4 (Example 2.2, FIGS. 5 and 6) were produced and purified as described in examples 3 and 4. Then, the apparent affinities were determined with binding assays on hPDGFRB-ECD and rPDGFRB-ECD, respectively, the setup described in example 5.1. Results are summarized in FIGS. 5 and 6 for the hPDGFRB and rPDGFRB VHHs, respectively.
(§1) Based on their high affinity and binding to non-overlapping hPDGRB epitopes, various biparatopic constructs were prepared based on VHHs SP02P, SP12P SP14P, SP26P and SP28P. The constructs were produced as described in example 7.1. and subjected to binding assay.
As Shown in FIG. 15C), the binding affinity of this construct for both hPDGFRB and rPDGFRB are below 5 nM. […]

[1] = molecular target: T1, hPDGFRB (SCC-hPDGFRB cells) (Homo sapiens, UniProt P09619); experiment: Binding to cells transgenically expressing human PDGFRB
T1 construct: SCC VII cells transgenically expressing full-length human PDGFRB (SCC-hPDGFRB); expressed in transfected cells; host or cells: murine SCC VII cells
T1 sequence (P09619 33-1106): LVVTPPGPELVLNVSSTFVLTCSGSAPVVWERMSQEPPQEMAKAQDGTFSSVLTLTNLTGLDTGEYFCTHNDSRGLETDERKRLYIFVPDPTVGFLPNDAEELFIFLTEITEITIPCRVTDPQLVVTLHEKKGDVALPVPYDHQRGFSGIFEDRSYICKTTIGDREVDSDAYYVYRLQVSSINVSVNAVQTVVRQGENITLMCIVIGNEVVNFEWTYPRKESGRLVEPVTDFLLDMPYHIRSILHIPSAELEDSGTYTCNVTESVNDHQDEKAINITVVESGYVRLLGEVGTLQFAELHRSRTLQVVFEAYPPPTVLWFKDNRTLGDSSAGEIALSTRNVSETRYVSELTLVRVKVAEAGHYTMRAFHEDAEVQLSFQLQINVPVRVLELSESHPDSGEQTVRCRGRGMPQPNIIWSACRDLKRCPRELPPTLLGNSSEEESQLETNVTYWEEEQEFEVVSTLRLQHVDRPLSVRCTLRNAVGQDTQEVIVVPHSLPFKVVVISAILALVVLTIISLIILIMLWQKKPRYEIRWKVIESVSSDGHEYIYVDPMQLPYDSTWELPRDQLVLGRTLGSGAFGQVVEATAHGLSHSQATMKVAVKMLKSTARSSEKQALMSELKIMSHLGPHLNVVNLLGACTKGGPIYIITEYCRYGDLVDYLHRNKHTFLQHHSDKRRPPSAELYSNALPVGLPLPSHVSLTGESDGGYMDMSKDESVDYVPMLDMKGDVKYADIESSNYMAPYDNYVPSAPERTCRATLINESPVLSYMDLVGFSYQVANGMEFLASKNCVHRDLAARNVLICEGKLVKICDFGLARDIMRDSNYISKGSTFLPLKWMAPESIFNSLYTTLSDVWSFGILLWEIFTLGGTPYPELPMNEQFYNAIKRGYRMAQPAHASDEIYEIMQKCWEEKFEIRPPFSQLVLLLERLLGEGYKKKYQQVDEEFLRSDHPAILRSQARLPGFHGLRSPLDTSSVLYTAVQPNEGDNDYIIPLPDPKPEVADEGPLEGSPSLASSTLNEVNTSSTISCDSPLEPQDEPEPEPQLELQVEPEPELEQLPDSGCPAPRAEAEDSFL
Method: (§2) High affine binders to hPDGFRB-ECD or rPDGFRB-ECD were subsequently assessed for binding to SCC VII cells transfected with hPDGFRB and rPDGFRB, respectively.
as §1
(§3) As Shown in FIG. 15C), the binding affinity of this construct for both hPDGFRB and rPDGFRB are below 5 nM. […] These observations make SP02P (or similar VHH) and SP26P (or similar VHH) particularly promising for use in the present invention.

[2] = molecular target: T2, rPDGFRB (SCC-rPDGFRB cells) (Rattus norvegicus, UniProt Q05030); experiment: Binding to cells transgenically expressing rat PDGFRB
T2 construct: SCC VII cells transgenically expressing full-length rat PDGFRB (SCC-rPDGFRB); expressed in transfected cells; host or cells: murine SCC VII cells
T2 sequence (Q05030 32-1097): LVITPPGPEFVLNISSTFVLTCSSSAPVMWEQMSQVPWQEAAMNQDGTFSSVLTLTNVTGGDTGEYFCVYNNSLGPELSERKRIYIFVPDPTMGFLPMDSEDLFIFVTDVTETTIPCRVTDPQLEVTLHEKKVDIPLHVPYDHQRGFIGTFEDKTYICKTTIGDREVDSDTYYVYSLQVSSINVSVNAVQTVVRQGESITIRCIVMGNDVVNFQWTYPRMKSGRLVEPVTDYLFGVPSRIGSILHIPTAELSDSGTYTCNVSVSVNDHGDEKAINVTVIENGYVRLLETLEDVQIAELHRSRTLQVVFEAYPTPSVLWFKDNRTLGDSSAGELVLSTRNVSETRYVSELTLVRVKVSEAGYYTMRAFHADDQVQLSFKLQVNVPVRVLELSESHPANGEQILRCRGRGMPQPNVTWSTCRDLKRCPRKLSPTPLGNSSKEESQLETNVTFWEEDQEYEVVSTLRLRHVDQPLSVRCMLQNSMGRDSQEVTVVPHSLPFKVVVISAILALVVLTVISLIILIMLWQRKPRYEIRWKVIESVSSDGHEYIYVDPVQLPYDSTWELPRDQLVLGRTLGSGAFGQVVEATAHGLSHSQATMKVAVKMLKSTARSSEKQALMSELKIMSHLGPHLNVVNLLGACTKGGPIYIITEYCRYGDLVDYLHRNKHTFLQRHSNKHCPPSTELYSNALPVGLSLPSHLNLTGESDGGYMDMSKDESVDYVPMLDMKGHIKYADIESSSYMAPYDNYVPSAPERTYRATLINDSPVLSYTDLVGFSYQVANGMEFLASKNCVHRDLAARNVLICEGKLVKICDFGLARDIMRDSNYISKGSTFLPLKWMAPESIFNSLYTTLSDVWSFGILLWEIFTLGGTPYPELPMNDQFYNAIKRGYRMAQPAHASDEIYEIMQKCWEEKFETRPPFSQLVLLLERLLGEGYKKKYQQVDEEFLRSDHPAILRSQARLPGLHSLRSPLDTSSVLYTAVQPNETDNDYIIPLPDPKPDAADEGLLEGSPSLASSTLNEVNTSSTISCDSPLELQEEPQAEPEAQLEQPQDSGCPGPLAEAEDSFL
Method: as §2, §1, §3

[3] = test system: primary activated rat hepatic stellate cells (HSCs); experiment: Binding to primary activated rat hepatic stellate cells; format: cell-based; settings: Alexa Fluor 488 conjugate; HSCs from BDL rat, 6 days in culture
Description: The cross-reactivity of F11-E8-ABD was further evaluated in binding experiments to primary activated rat hepatic stellate cells (HSCs). For this, the construct was conjugated to Alexa Fluor 488 according to the methods described in example 10.2. Activated HSCs were obtained from a perfused liver of a cirrhotic bile duct ligated (BDL) rat through density gradient centrifugation. Cells were kept in culture for 6 days to allow complete activation. […] Simultaneously, binding of the VHH construct to the activated cells was evident, further confirming species cross-reactivity of the construct.

[4] = Biodistribution by whole-body PET of 89Zr-labelled constructs; format: in vivo; settings: 89Zr-desferral labelled, i.v., rats
Method: (§4) The in vivo pharmacokinetic properties of 13F11-13E8-ABD (F11E8-ABD; with ABD) and 13F11-13E8 (F11E8; without ABD) were compared in healthy Sprague-Dawley rats. In brief, rats were dosed intravenously with approximately 3 mg/kg body weight and blood samples were taken at different time points and the concentration of the VHH constructs were determined using an ELISA on immobilized hIGF2R-ECD. […] To further confirm the functionality of the ABD, biodistribution of F11E8-ABD and F11E8 were assessed by means of Positron Emission Tomography (PET). In brief, the constructs were radio-labelled with the positron emitter ^89Zr-desferral according to Verel et al (J Nucl Med. 2003; 44:1271-1281), and administered intravenously to rats after which biodistribution was assessed on subsequent time points by whole-body PET.

[5] = In vivo pharmacokinetics in rats, serum ELISA on hIGF2R-ECD; design: species or system Sprague-Dawley rats
Method: as §4

Sequence of hPDGFRB-ECD (P09619 33-532 limits assumed): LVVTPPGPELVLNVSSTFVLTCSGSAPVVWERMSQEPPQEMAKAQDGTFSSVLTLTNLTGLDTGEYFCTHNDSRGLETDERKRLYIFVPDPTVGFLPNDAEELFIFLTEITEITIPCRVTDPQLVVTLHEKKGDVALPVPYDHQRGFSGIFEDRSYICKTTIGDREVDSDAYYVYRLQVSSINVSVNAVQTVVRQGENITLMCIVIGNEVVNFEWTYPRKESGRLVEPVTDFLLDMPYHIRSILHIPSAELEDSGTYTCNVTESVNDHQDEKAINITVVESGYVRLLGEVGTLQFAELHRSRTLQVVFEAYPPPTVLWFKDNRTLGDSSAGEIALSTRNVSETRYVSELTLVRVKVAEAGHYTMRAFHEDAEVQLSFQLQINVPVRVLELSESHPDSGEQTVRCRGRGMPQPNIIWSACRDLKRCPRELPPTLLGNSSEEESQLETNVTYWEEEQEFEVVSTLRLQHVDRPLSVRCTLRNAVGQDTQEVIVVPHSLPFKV

affinity for hPDGFRB (hPDGFRB-ECD): lowest affinity
affinity for hPDGFRB on cells [1]: low affinity
affinity for rPDGFRB on cells [2]: high affinity
B1: SP26P-SP28P: biparatopic construct based on VHH raised against rPDGFRB (protein)
chain: EVQLVESGGGLVQAGGSLRLSCAASGSIVSFNGINWYRQAPGKQREWVGGITQGGNTMYADSVRGRFTISRDNTKNTMYLQMNSLKPEDTAVYYCRRPPVASWGQGTQVTVSSGGGGSGGGGSGGGGSEVQLVESGGGLVQAGGSLRLSCAASGRSFSSSVMGWFRQTPGKEREFVAATRWTAASTHYADSVKGRFTISRDHAENAVFLQMNSLKPEDTAVYYCAAGNYLDTAQYRYNYWGQGTQVTVSS
modifications: left off: small tags and cut ends
notes: biparatopic construct based on VHH raised against rPDGFRB

B2: 13F11-13E8-ABD: 13F11-13E8 re-engineered to include an albumin binding domain (ABD) as half-life extender (protein)
chain: EVQLVESGGRLVQPGDSLRLSCAASGRTFSDNAMGWFRQAPGKERRFVAGISWAGGSTYYSDSVKGRFTISRDNAKNTVYLQMNSLKPEDTAVYYCAAGLRAWVQRMPKDYNYWGQGTQVTVSSGGGGSGGGGSGGGGSEVQLVESGGGLVQAGGSLRLSCAASRSISPMGWYRQAPGKQRELVAIMPSSGPPIYADSVQGRFTISRDNAKNTVYLQMNSLKPEDTAVYYCNVGGGYWGQGTQVTVSS
modifications: left off: large carriers; small tags and cut ends
binding to activated HSCs [3]: evident
biodistribution (PET) [4]: accumulate in the liver
infused dose still in circulation ([5]; one hour after dosing, approximately 20 nmoles infused, estimated serum volume 10 mL): approximately 50%
Cmax ([5]; rats, i.v., approximately 3 mg/kg, read-out: peak serum level (Cmax)): > 1000 nM
